# Assay results from patent publication US20240352438A1, “MEANS AND METHODS FOR DETOXIFYING OCHRATOXIN A” (DSM Austria GmbH, priority 2021, published 2024).
# Numbering of substitutions follows the chain as printed.
# B1: 160 (protein)
# chain: MTTRTRILTAFLSLLAANACAADAAPAAPHTVVLRAARMFDGASGKLVDHPQLTIVGNKIVRIAQGDKAEVPAGAEVVDLGDATLLPGFIDAHVHLSGQSSDNWYGDFFDNMMRFPAEQALYGAYYARITLEAGFTSVRDVGSTDWVALGLRNAIDAGKVPGPRMLVSNYAVGSTGGHADQDPIPPHKLPLAGPLQGVCNGPEECRAAVRYQIKYGANVIKFMPSGGVLSLSDPVDAPELSQDEMNAVIGESHAWGRKVAAHAHGDKAAKMAVAAGVDSIEHGSFIEDDTLRAMKAKNVYLVPTISAVAHVEEKIGTYPPVIAEKGRAAAAHLRQTFRHAVQIGVPIALGTDAGVGAHGSNAREFRYMVENGLTPAQALLAGTANAARLLGTFDRVGTLEAGKLADVVAVPGNPIADITVTERPLFVMKDGVVVRRDAVR
# modifications: exemplary polypeptide
# B2: 162 (protein)
# chain: B1 chain with Y318F, G354A
# modifications: exemplary polypeptide
# B3: 163 (protein)
# chain: B1 chain with V308I, G354A
# modifications: exemplary polypeptide
# B4: 164 (protein)
# chain: B1 chain with A171P, I184V, V308A, Y318F
# modifications: exemplary polypeptide
# B5: 165 (protein)
# chain: B1 chain with A171P, I184V, Y318F
# modifications: exemplary polypeptide
# B6: 166 (protein)
# chain: B1 chain with A171P, I184V, V308I
# modifications: exemplary polypeptide
# B7: 167 (protein)
# chain: B1 chain with A171P, I184V, V308I, Y318F, G354A
# modifications: exemplary polypeptide
# B8: 168 (protein)
# chain: B1 chain with A171P, V308A
# modifications: exemplary polypeptide
# B9: 169 (protein)
# chain: B1 chain with A171P
# modifications: exemplary polypeptide
# B10: 173 (protein)
# chain: B1 chain with I184V, V308A
# modifications: exemplary polypeptide
# B11: 232 (protein)
# chain: B1 chain with D233Q, V308I, Y318F
# modifications: exemplary polypeptide
# B12: 92 (protein)
# chain: B1 chain with V308I, Y318M
# modifications: exemplary polypeptide
# B13: 93 (protein)
# chain: B1 chain with V308I, Y318F, A329G
# modifications: exemplary polypeptide
# B14: 99 (protein)
# chain: B1 chain with F109V, V308I, Y318F
# modifications: exemplary polypeptide
# B15: 100 (protein)
# chain: B1 chain with F109L, V308I, Y318F
# modifications: exemplary polypeptide
# B16: 101 (protein)
# chain: B1 chain with M112I, V308I, Y318F
# modifications: exemplary polypeptide
# B17: 102 (protein)
# chain: B1 chain with M112W, V308I, Y318F
# modifications: exemplary polypeptide
# B18: 104 (protein)
# chain: B1 chain with I184F, V308I, Y318F
# modifications: exemplary polypeptide
# B19: 109 (protein)
# chain: B1 chain with V308I, K314Q, Y318F
# modifications: exemplary polypeptide
# B20: 110 (protein)
# chain: B1 chain with V308I, K314E, Y318F
# modifications: exemplary polypeptide
# B21: 117 (protein)
# chain: B1 chain with F108Y, V308I, Y318F
# modifications: exemplary polypeptide
# B22: 118 (protein)
# chain: B1 chain with M113Q, V308I, Y318F
# modifications: exemplary polypeptide
# B23: 126 (protein)
# chain: B1 chain with H253E, D278R, V308I, Y318F
# modifications: exemplary polypeptide
# B24: 129 (protein)
# chain: B1 chain with S100C, V308I, T317C, Y318F
# modifications: exemplary polypeptide
# B25: 133 (protein)
# chain: B1 chain with A307V, V308I, Y318F
# modifications: exemplary polypeptide
# B26: 134 (protein)
# chain: B1 chain with N111D, V308I, Y318F
# modifications: exemplary polypeptide
# B27: 135 (protein)
# chain: B1 chain with Y300C, V308I, Y318F, L389C
# modifications: exemplary polypeptide
# B28: 142 (protein)
# chain: B1 chain with G142P, V308I, Y318F
# modifications: exemplary polypeptide
# B29: 149 (protein)
# chain: B1 chain with A179T, V308I, Y318F
# modifications: exemplary polypeptide
# Test: Enzymatic activity comparison: activity remaining after 65° C. for 10 min at pH 6.0, relative to SEQ ID NO: 1
# Format: physicochemical
# Settings: not given
# Experimental: To compare the temperature behavior and thermostability of selected enzymes to one another, enzyme was incubated at 65° C. for 10 min at pH 6.0. The enzymatic activity remaining after incubation was compared to the remaining activity of the enzyme of SEQ ID NO: 1 after incubation, the latter being set to 100%, see Table 16.
row,Molecule,"Enzymatic activity remaining after incubation, compared to SEQ ID NO: 1 (set to 100%)"
1,B1,30%
2,B2,7%
3,B3,17%
4,B4,15%
5,B5,33%
6,B6,37%
7,B7,26%
8,B8,48%
9,B9,30%
10,B10,53%
11,B11,25%

# Test: OTA detoxification activity assay (specific activity, fluorescence reduction ex/em 390/450 nm)
# Format: biochemical
# Settings: pH 6.0; SEQ ID NO: 1 = 100%
# Summary of the method: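 Recombinant enzyme preparation with 200 ng/mL OTA in 100 mM sodium phosphate, at pH 6.0 and pH 7.5, 37° C. Degradation followed as the fall in fluorescence at ex/em 390/450 nm. Specific activity taken from the initial linear slope; one unit degrades 1 μmol OTA per min at a starting OTA of […].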
row,Molecule,"Specific OTA detoxification activities in % compared to the enzyme of SEQ ID NO: 1, pH 6.0"
1,B1,78%
2,B2,191%
3,B3,145%
4,B4,29%
5,B5,46%
6,B6,72%
7,B7,54%
8,B8,41%
9,B9,50%
10,B10,27%
11,B12,37%
12,B13,20%
13,B14,52%
14,B15,43%
15,B16,82%
16,B17,50%
17,B18,102%
18,B19,74%
19,B20,33%
20,B21,40%
21,B22,26%
22,B23,63%
23,B24,51%
24,B25,23%
25,B26,41%
26,B27,68%
27,B28,34%
28,B29,30%

# Same assay, conditions: pH 7.5; SEQ ID NO: 1 = 100%
row,Molecule,"Specific OTA detoxification activities in % compared to the enzyme of SEQ ID NO: 1, pH 7.5"
1,B1,84%
2,B2,124%
3,B3,112%
4,B4,63%
5,B5,71%
6,B6,68%
7,B7,73%
8,B8,62%
9,B9,45%
10,B10,53%
11,B12,52%
12,B13,17%
13,B14,58%
14,B15,28%
15,B16,89%
16,B17,89%
17,B18,71%
18,B19,107%
19,B20,48%
20,B21,80%
21,B22,22%
22,B23,75%
23,B24,83%
24,B25,27%
25,B26,52%
26,B27,70%
27,B28,8%
28,B29,13%
